Measured values published in patent US10100114B2, “Antibodies specific for TROP-2 and their uses” (RINAT NEUROSCIENCE CORP., priority 2011, dated 2018).

How the values were obtained:
[1] = test system: SW620 cells (Trop-2 non-expressing); test: Cytotoxicity of ADCs (CellTiter-Glo), SW620; format: cell-based; conditions: Table 13; SW620, Trop2 expression −; 96 hours; concentration of total Ab
Description: Target expressing (A431, BxPC3, CAPAN-2 and Colo205) or non-expressing (SW620) cells were seeded on white walled clear bottom plates at 2000 cells/well for 24 hours before treatment. Cells were treated with 4 fold serially diluted antibody-drug conjugates in triplicates. Cell viability was determined by CellTiter-Glo® Luminescent Cell Viability Assay 96 (Promega, Madison Wis.) 96 hours after treatment. Relative cell viability was determined as percentage of untreated control. IC50 was calculated by Prism software.
2-methylalanyl-N-[(3R,4S,5S)-3-methoxy-1-{(2S)-2-[(1R,2R)-1-methoxy-2-methyl-3-oxo-3-{[(1S)-2-phenyl-1-(1,3-thiazol-2-yl)ethyl]amino}propyl]pyrrolidin-1-yl}-5-methyl-1-oxoheptan-4-yl]-N-methyl-L-valinamide is a novel auristatin, as described in U.S. Application Nos. 61/561,255 and 61/676,423. Method of conjugating Trop-2 antibodies using transglutaminase tags is described in Example 9. Target expressing or non-expressing (SW620) cells were seeded on white walled clear bottom plates at 2000 (A431, BxPC3, NCI-H292, NCI-H1650, MDA-MB-468 and SW620), 2500 (Calu-3) or 3000 (OVCAR3 and SKBR3) cells per well for 24 hours before treatment. Cells were treated with 4 fold serially diluted antibody-drug conjugates in triplicates. Cell viability was determined by CellTiter-Glo® Luminescent Cell Viability Assay 96 (Promega, Madison, Wis.) 96 hours after treatment. Relative cell viability was determined as percentage of untreated control. IC50 was calculated by GraphPad Prism 5 software and expressed as concentration (nM) of total Ab.

[2] = test system: pancreatic cancer patient derived xenograft (PDX Pan0146); test: In vivo efficacy of Trop-2 ADC, pancreatic PDX Pan0146
Description: In vivo efficacy studies of Trop-2 ADC using humanized anti-Trop-2 antibody (h7E6SVG) conjugated with TG6-vc0101 were performed with target-expressing pancreatic cancer patient derived xenograft model (PDX Pan0146) from Jackson Laboratories (Bar Harbor, Me.). For efficacy studies, 1-2 mm^3 of tumor fragments were implanted subcutaneously into the lateral flanks of the animals. […] Gemcitabine was given at 75 mg/kg twice weekly for a total of 6 doses. […] Gemcitabine was given once weekly at 75 mg/kg for 4 doses. Tumor volume was measured once a week by a Caliper device and calculated with the following formula: Tumor volume=(length×width^2)/2. Studies were terminated before their tumor volumes reached 2000 mm^3.

[3] = test system: ovarian cancer patient derived xenograft (PDX Ova196756); test: In vivo efficacy of Trop-2 ADC, ovarian PDX Ova196756; design: species or system CB17/SCID mice; conditions: single dose, […] and 1.5 mg/kg, tail vein; FIG. 11
Description: This tumor sample was derived from surgical specimen and propagated in NSG mice (Jackson Laboratories, Bar Harbor, Me.). For efficacy studies, approximately 1-2 mm^3 of tumor fragments were implanted subcutaneously into the lateral flanks of CB17/SCID mice. […] Tumor volume was measured once a week by a caliper device and calculated with the following formula: Tumor volume=(length×width^2)/2. Studies were terminated before their tumor volumes reached 2000 mm^3.

BxPC3 xenograft = test: In vivo efficacy of humanized Trop-2 ADCs, pancreatic tumor BxPC3 xenograft model; design: species or system CB17/SCID mice; conditions: single dose, tail vein; FIGS. 9A-9C
Description: In vivo efficacy studies of Trop-2 ADCs were performed with target-expressing BxPC3 xenograft model. Two million BxPC3 pancreatic cancer cells were implanted subcutaneously into 5-8 weeks old CB17/SCID mice until the tumor sizes reached between 300-400 mm^3. […] Tumor volume was measured once a week by a Caliper device and calculated with the following formula: Tumor volume=(length×width^2)/2. Studies were terminated before their tumor volumes reached 2000 mm^3.

Colo205 xenograft = test: In vivo efficacy of Trop-2 ADCs, colorectal tumor Colo205 xenograft model; design: species or system nu/nu mice; conditions: single dose of 6 mg/kg, tail vein; FIG. 10
Description: In vivo efficacy study of Trop-2 ADCs was performed with target-expressing colo205 xenograft model. Three millions of colo205 colon cancer cells were implanted subcutaneously into 5-8 weeks old nu/nu mice until the tumor sizes reached ˜300 mm^3. […] Tumor volume is measured once a week by a Caliper device and calculated with the following formula: Tumor volume=(length×width^2)/2. Studies were terminated before their tumor volumes reached 2000 mm^3.

[4] = test system: pancreatic cancer patient derived xenograft (PDX Pan144607); test: In vivo efficacy of Trop-2 ADC, pancreatic PDX Pan144607; design: species or system CB17/SCID mice; conditions: single dose of 1.5, 3.0 and 6.0 mg/kg, tail vein; FIG. 13
Description: In vivo efficacy study of Trop-2 ADC using humanized anti-Trop-2 antibody (h7E6SVG) conjugated with vc0101 or PEG6MMAD was performed with target-expressing pancreatic cancer patient derived xenograft model (PDX Pan144607). This tumor sample was derived from surgical specimen and propagated in NSG mice (Jackson Laboratories, Bar Harbor, Me.). For efficacy studies, approximately 1-2 mm^3 of tumor fragments were implanted subcutaneously into the lateral flanks of CB17/SCID mice. Animals were randomized by tumor sizes once they reached ˜300 mm^3, and single dose of 1.5, 3.0 and 6.0 mg/kg h7E6SVG-N297Q/K222R-PEG6MMAD and the control conjugate were administered through bolus tail vein injection. Tumor volume was measured once a week by a Caliper device and calculated with the following formula: Tumor volume=(length×width^2)/2. Studies were terminated before their tumor volumes reach 2000 mm^3.

[5] = test system: pancreatic cancer patient derived xenograft (PDX Pan0135); test: In vivo efficacy of Trop-2 ADC, pancreatic PDX Pan0135; conditions: 6 mg/kg single dose, tail vein; FIG. 14
Description: In vivo efficacy study of Trop-2 ADC using humanized anti-Trop-2 antibody (h7E6SVG) conjugated with PEG6MMAD was performed with target-expressing pancreatic cancer patient derived xenograft model (PDX Pan0135) from Jackson Laboratories. For efficacy studies, approximately 1-2 mm^3 of tumor fragments were implanted subcutaneously into the lateral flanks of the animals. Animals were randomized by tumor sizes once they reached ˜300 mm^3 and 6 mg/kg of h7E6SVG-N297Q/K222R-PEG6MMAD and the control conjugate were administered through bolus tail vein injection with single dose. Tumor volume was measured once a week by a Caliper device and calculated with the following formula: Tumor volume=(length×width^2)/2. Studies were terminated before their tumor volumes reached 2000 mm^3.

B1: h7E6SVG-TG6-vc0101: h7E6SVG with heavy chain C-terminal TG6 tag (SEQ ID NO: 79) conjugated with AcLys-vc-PABC-0101 (conjugate)
VH: QVQLQESGPGLVKPSETLSLTCTVSGGSISSYGVHWIRQPPGKGLEWIGVIWTSGVTDYNSALMGRVTISVDTSKNQFSLKLSSVTAADTAVYYCARDGDYDRYTMDYWGQGTLVTVSS
VL: DIVMTQSPDSLAVSLGERATINCRASKSVSTSGYSYMHWYQQKPGQPPKLLIYLASNLESGVPDRFSGSGSGTDFTLTISSLQAEDVAVYYCQHSRELPYTFGQGTKLEIK
[1]
  IC50: 156 nM
[2]; […] weekly x4, 1.5 mg/kg bi-weekly x2 or 3.0 mg/kg single dose, FIG. 12B
  tumor response on continuous dosing, Pan0146 PDX: sustained tumor regression
[2]; single dose vs gemcitabine 75 mg/kg twice weekly, 6 doses, FIG. 12A
  efficacy to induce tumor regression compared with gemcitabine, Pan0146 PDX: superior efficacy to gemcitabine
[3]
  tumor response, ovarian PDX Ova196756: tumor regression
BxPC3 xenograft
  tumor response, BxPC3 xenograft: tumor regression
Colo205 xenograft
  tumor response, Colo205 xenograft: tumor regression

B2: h7E6SVG-N297Q/K222R-PEG6MMAD: h7E6SVG with N297Q/K222R mutations conjugated with PEG6-propionyl-MMAD (conjugate)
VH: B1 VH
VL: B1 VL
[1]
  IC50: > 267 nM
BxPC3 xenograft
  tumor response, BxPC3 xenograft: tumor regression
[4]
  tumor response, Pan144607 PDX: tumor regression
[5]
  tumor response, Pan0135 PDX: tumor regression
